The target of test [1] is T1, 抗MT1−MMP抗体MMPK9I (ハイブリドーマ19Bが産生する抗体IgG).
T1 construct: Mouse IgG from hybridoma 19B; Culture supernatant in the screening; in the flow immunoassay in complex with Cy5-labelled goat anti-mouse IgG F(ab')2; also called 抗体K9I
In words: flow immunoassay: free hinge peptide (0.0-100 ng/mL) inhibits binding of Cy5-F(ab')2-labelled IgG MMPK9I to conjugate-coated polystyrene beads.

The next test deals with T2, MT1−MMPヒンジ領域ペプチドコンジュゲート (mouse, UniProt P02769 25-607 (bovine entry), C-terminal Cys coupled through the linker Sulfo-EMCS to the carrier protein).
T2 construct: peptide 3); also called ペプチド−BSA複合体; 固相化抗原
T2 sequence (P02769 25-607 limits assumed): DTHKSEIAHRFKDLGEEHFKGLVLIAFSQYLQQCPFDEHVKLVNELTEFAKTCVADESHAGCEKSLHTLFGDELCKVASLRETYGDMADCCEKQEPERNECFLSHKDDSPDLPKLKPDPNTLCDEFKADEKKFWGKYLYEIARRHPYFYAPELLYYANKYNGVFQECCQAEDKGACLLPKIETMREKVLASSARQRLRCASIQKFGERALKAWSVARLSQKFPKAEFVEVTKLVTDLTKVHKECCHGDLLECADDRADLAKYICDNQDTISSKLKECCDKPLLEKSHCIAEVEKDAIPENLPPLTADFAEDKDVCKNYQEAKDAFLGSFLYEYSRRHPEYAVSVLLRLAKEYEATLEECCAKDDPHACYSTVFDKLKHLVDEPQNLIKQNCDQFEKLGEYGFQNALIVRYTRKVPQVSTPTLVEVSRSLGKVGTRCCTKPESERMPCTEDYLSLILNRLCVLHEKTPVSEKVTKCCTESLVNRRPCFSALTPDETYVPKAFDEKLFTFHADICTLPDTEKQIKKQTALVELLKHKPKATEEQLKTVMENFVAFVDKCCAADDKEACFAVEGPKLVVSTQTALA
The experiment in a line: SPR, peptide 3-BSA complex immobilised, scFv as analyte. (In SPR one partner is held on a chip, and binding of the other changes the refractive index at the surface.)

For the molecule PQPRTTSRPSVPDKPKNC (also called MT1−MMPペプチド; 抗原ペプチド) [MT1−MMPヒンジ領域ペプチド], the IC50 (in general, the concentration that inhibits the measured activity by half) in test [1] is about 4.74 ng/mL.

B1: 単鎖抗体MMPK9E−1 (scFv, V domains shown)
VH: QIQLVQSGPELKKPGETVKISCKASGYTFTSYALHWVKQAPGKGLKWMGWKYTNTGEPTYGDDFKGRFAFSLETSASTAYLQINNLKNEDMATYFCARGGLSSYAMDYWGQGTSVTVSS
VL: DIVMSQSPSSLAVSAGEKVTMSCKSSQSLLNSRTRKNYLAWYQQKPGQSPKLLIYWASTRESGVPDRFTGTGSGTDFTLTISSVQAEDLAVYYCKQSYNLLVTFGAGTKLELKR
Take B1: the Kd – broadly, the concentration at which binding is half-saturated – with MT1−MMPヒンジ領域ペプチドコンジュゲート was about 10 nM.

B2: 単鎖抗体MMPK9I−1 (scFv, V domains shown)
VH: QVQLQQSGAELVRPGASVTLSCKASGYRFTDYEMHWVRQTPVHGLEWIGAIDPETGGTAYNQKFKGKATLTEDKSSSTAYMELRSLTSEDSAVYYCTTMITTALDYWGQGTSVTVSS
VL: DVLMTQTPLSLPVSLGDQASISCRSSQSIVHSDGNTYLEWYLQKPGQSPKVLIYKVSNRFSGVPDRFSGSGSGTDFTLKITRVEAEDLGVYYCFQGSHVPYTFGGGTKLEIKR
Take B2: the Kd with MT1−MMPヒンジ領域ペプチドコンジュゲート was about 10 nM.

B3: 単鎖抗体MMP98−1 (scFv, V domains shown)
VH: EVQLQQSGPELKKPGETVKISCKASGYPVTKYGMNWVKQAPGKGLKWMGWINTYTGEPTYTDDFKGRFAFSLETSANTAYLQINNLKDEDTATYFCANSHGKYVEWFTYWGQGTTVTVSS
VL: DIELTQSPTTMAASPGEKITITCSASSSISSNYLHWYQQKPGFSPKLLIYRTSNLASGVPARFSGSGSGTSYSLTIGTMEAEDVATYYCQQGSSIPLTFGAGTKLELKR
On to B3, for which the Kd in the test with MT1−MMPヒンジ領域ペプチドコンジュゲート is about 10 nM.

These data come from patent publication JP2012115243A (dated 2012).
